Holding throughout (assay type): biochemical
Data set [1] in a line: Ratio of enzyme activity with pHBA versus sinapic acid (spectrophotometric assays). Conditions: for rate of pHBA glucosylation relative to sinapic acid: cell-free extract; for Ratio of Activity pHBA/SA: Table 4, cell-free extracts, 10 mM pHBA or sinapic acid, 25° C.; for times more active with sinapic acid than pHBA / pHBA/SA ratio of enzyme activity: crude extract. As for the experimental part:
(§1) The second assay is based on the increase in absorbance at 368 nm that accompanies the formation of the glucose ester of sinapic acid. The experimental conditions were the same as those described above, but the test substrate was sinapic acid and product formation was calculated using an extinction coefficient of 5,570 M^−1 that was obtained with the authentic chemically synthesized compound under identical conditions.

A short description of data set [2]: Continuous spectrophotometric UDP-glucosyltransferase assay, formation of glucose ester of sinapic acid at 368 nm, E. coli cell-free extracts. Particulars: crude extract, 10 mM UDP-glucose, pH 7.3, 25° C.; for initial rate of product formation, 1 mM SA: 1 mM sinapic acid; for initial rate of product formation, 5 mM SA: 5 mM sinapic acid; for initial rate of product formation, 10 mM SA: 10 mM sinapic acid. As for the experimental part: (§2) For protein production, the resulting recombinant strains were grown at 22° C. in 50 mL of LB media that contained kanamycin (50 μg/mL). At an A600 nm of ˜0.6, isopropyl-1-thio-β-D-galactopyranoside was added to a final concentration of 0.2 mM. Following a 22-h induction period at the same temperature, the cells were harvested by centrifugation and stored at −80° C. for subsequent manipulation as described below.
(§3) The frozen cell pellets were resuspended in 1.0 mL of a solution containing 100 mM Tris-HCl (pH 7.7), 5 mM MgSO4, 1 mM dithiothreitol, 0.03 mg/mL DNAse I, 0.5 mM phenylmethanesulfonyl fluoride, and passed once through a French pressure cell at 20,000 psi. Debris was removed by centrifugation (43,000×g, 60 min), and the resulting cell-free extracts, containing ˜15 mg of protein per mL, were supplemented with 5% glycerol and stored at −80° C. for subsequent measurements of enzyme activities. Protein concentrations were determined by the Bradford Method using bovine serum albumin as a standard.
as §1

Data set [3] can be described thus: Continuous spectrophotometric UDP-glucosyltransferase assay, formation of pHBA glucose ester at 304 nm, E. coli cell-free extracts. Particulars: crude extract, 10 mM UDP-glucose, pH 7.3, 25° C. As for the experimental part: as §2, §3

This is an account of results in patent US7135326B2, “UDP-glucosyltransferases” (E. I. du Pont de Nemours and Company, priority 2002, dated 2006).

B1: Eucalyptus GT: Eucalyptus grandis UDP-glucosyltransferase, SEQ ID NO:22 (protein, listed as Eucalyptus grandis)
chain: MGSEALVHVLLVSFPGQGHVNPLLRLGKRLASKGLLVTFTTPESIGKAMRKASNIGEELSPVGDGFIRFEFFEDGWDEDEIRRQDLDQYLPQLEKVGKVLIPEMIRRNAEQGRPISCLINNPFIPWVSDVADSLGLPSAMLWVQSCACFTSYYYYYHGLVPFPSETAMEIDVQLPCMPLLKHDEVPSFLYPTTPYPFLRRAIMGQYKNLDKPFCILMDTFQELEHEIIEYMSKISPIKTVGPLFKNPKAPNATVKGDFMKADDCVGWLDSKPASSIVYVSFGSVVYLKQDQWDEIAYGLLNSGVNFLWVMKPPHKDSGYEVLKMPEGFLEKAGDRGKVVQWSPQEQVLAHPSVACFVTHCGWNSTMEALTSGMPVVAFPQWGDQVTDAKYLVDVFKVGVRMCRGEAENKLITRDVVEQCLREATSGPKAEEMKQNAMKWSAAAEAAVAEGGSSDRNIQAFVDEVKRRSLEVLAASGKSTANGGADLANKVAANGVAELGEPKVNGELKVVS
As to B1, the “rate of pHBA glucosylation relative to sinapic acid” value in data set [1] (10 mM substrate) is “over an order of magnitude greater”. Further, the “Ratio of Activity pHBA/SA” value in data set [1] is reported as 13.2.

B2: GT 4: Arabidopsis UDP-glucosyltransferase, GenBank AL161541, SEQ ID NO:12 (protein, listed as Arabidopsis thaliana)
chain: MNPSRHTHVMLVSFPGQGHVNPLLRLGKLIASKGLLVTFVTTEKPWGKKMRQANKIQDGVLKPVGLGFIRFEFFSDGFADDDEKRFDFDAFRPHLEAVGKQEIKNLVKRYNKEPVTCLINNAFVPWVCDVAEELHIPSAVLWVQSCACLTAYYYYHHRLVKFPTKTEPDISVEIPCLPLLKHDEIPSFLHPSSPYTAFGDIILDQLKRFENHKSFYLFIDTFRELEKDIMDHMSQLCPQAIISPVGPLFKMAQTLSSDVKGDISEPASDCMEWLDSREPSSVVYISFGTIANLKQEQMEEIAHGVLSSGLSVLWVVRPPMEGTFVEPHVLPRELEEKGKIVEWCPQERVLAHPAIACFLSHCGWNSTMEALTAGVPVVCFPQWGDQVTDAVYLADVFKTGVRLGRGAAEEMIVSREVVAEKLLEATVGEKAVELRENARRWKAEAEAAVADGGSSDMNFKEFVDKLVTKHVTREDNGEH
On to B2, for which, in data set [1] (10 mM substrate), the “times more active with sinapic acid than pHBA” value (from here on “times more active”) is “at least 80 times”.

B3: GT 3: Arabidopsis UDP-glucosyltransferase, GenBank AL161541.2, SEQ ID NO:8 (protein, listed as Arabidopsis thaliana)
chain: MMFETCPSPNPIHVMLVSFQGQGHVNPLLRLGKLIASKGLLVTFVTTELWGKKMRQANKIVDGELKPVGSGSIRFEFFDEEWAEDDDRRADFSLYIAHLESVGIREVSKLVRRYEEANEPVSCLINNPFIPWVCHVAEEFNIPCAVLWVQSCACFSAYYHYQDGSVSFPTETEPELDVKLPCVPVLKNDEIPSFLHPSSRFTGFRQAILGQFKNLSKSFCVLIDSFDSLEQEVIDYMSSLCPVKTVGPLFKVARTVTSDVSGDICKSTDKCLEWLDSRPKSSVVYISFGTVAYLKQEQIEEIAHGVLKSGLSFLWVIRPPPHDLKVETHVLPQELKESSAKGKGMIVDWCPQEQVLSHPSVACFVTHCGWNSTMESLSSGVPVVCCPQWGDQVTDAVYLIDVFKTGVRLGRGATEERVVPREEVAEKLLEATVGEKAEELRKNALKWKAEAEAAVAPGGSSDKNFREFVEKLGAGVTKTKDNGY
For the molecule B3, in data set [1] (10 mM substrate), the “times more active” value is given as “only about twice as active” and the “pHBA/SA ratio of enzyme activity” value is on record as 0.454. The “Ratio of Activity pHBA/SA” value in data set [1] is 0.454. Also, in data set [1] (1 mM substrate), the “pHBA/SA ratio of enzyme activity” value amounted to 0.064. In addition, in data set [1] (5 mM substrate), the “pHBA/SA ratio of enzyme activity” value amounted to 0.268. Also, in data set [2], the “initial rate of product formation, 1 mM SA” value amounted to 146 μM per min; the “initial rate of product formation, 5 mM SA” value stood at 158 μM per min; the “initial rate of product formation, 10 mM SA” value is 143 μM per min. Also, in data set [3], the “initial rate of product formation, 1 mM pHBA” value is recorded as 9.4 μM per min; the “initial rate of product formation, 5 mM pHBA” value is recorded as 42.3 μM per min; the “initial rate of product formation, 10 mM pHBA” value is listed as 64.9 μM per min.

B4: SA-GT: Brassica napus UDP-glucosyltransferase (GenBank Accession No. AF287143), SEQ ID NO:4 (protein, listed as Brassica napus)
chain: MELSSSPLPPHVMLLSFPGQGHVNPLLRLGKLLASKGLLVTFVTTESWGKKMRTANKIQDRALKPIGKGYLRFDFFDDGLPEDDDASRTNLTILRPQLELVGQQEIKNLVKRYKEVMKQPVTCLINNPFVSWVCDVAEDLQIPCAVLWVQSCACLASYYYYHHKLVDFPTETDPKIDVQIPCMPVLKHDEIPSFIHPFSPYSGLREVIIDQIKRLHKPFVVLIDTFYSLEKDIIDHMTNLSRTGVVRPLGPLYKMAKTLICDDIKGDMSETRDDCMEWLDSQPVSSVVYISFGTMAYVTQEQISEIAFGVLNAGVSFLWVIRQQELGVNKERHVLPEELKGKGKVVEWCSQEKVLAHPSVVCFVTHCGWNSTMEALSSGVPTVCFPQWGDQVTDAAYMSDVFKTGVRLSRGETEERVVPREEVAERLREVTKGEKATELKKNALKWKEEAEAAVARRGSSDRNLDEFVEKLCVKHVAKQNGSLNQNGSIQKLLLQKS
As for B4, in data set [1] (10 mM substrate), the “times more active” value is “at least 50 times” and the “pHBA/SA ratio of enzyme activity” value came out at 0.018. Further, the “Ratio of Activity pHBA/SA” value in data set [1] came to 0.018. The “pHBA/SA ratio of enzyme activity” value in data set [1] (1 mM substrate) worked out at 0.002. For the same molecule, the “pHBA/SA ratio of enzyme activity” value in data set [1] (5 mM substrate) worked out at 0.007. In data set [2], the “initial rate of product formation, 1 mM SA” value was determined as 118 μM per min; the “initial rate of product formation, 5 mM SA” value stood at 82 μM per min; the “initial rate of product formation, 10 mM SA” value is on record as 55.6 μM per min. For the same molecule, in data set [3], the “initial rate of product formation, 1 mM pHBA” value stood at 0.20 μM per min; the “initial rate of product formation, 5 mM pHBA” value amounted to 0.59 μM per min; the “initial rate of product formation, 10 mM pHBA” value was 1.03 μM per min.

B5: Citrus GT: Citrus mitis UDP-glucosyltransferase, SEQ ID NO:31 (protein, listed as Citrus mitis)
chain: MGTESLVHVLLVSFPGHGHVNPLLRLGRLLASKGFFLTLTTPESFGKQMRKAGNFTYEPTPVGDGFIRFEFFEDGWDEDDPGRRDLDQYMAQLELIGKQVIPKIIKKSAEEYRPVSCLINNPFIPWVSDVAESLGLPSAMLWVQSCACFAAYYHYFHGLVPFPSEKEPEIDVQLPCMPLLKHDEVPSFLHPSTPYPFLRRAILGQYENLGKPFCILLDTFYELEKEIIDYMAKICPIKPVGPLFKNPKAPTLTVRDDCMKPDECIDWLDKKPPSSVVYISFGTVVYLKQEQVEEIGYALLNSGISFLWVMKPPPEDSGVKIVDLPDGFLEKVGDKGKVVQWSPQEKVLAHPSVACFVTHCGWNSTMESLASGVPVITFPQWGDQVTDAMYLCDVFKTGLRLCRGEAENRIISRDEVEKCLLEATAGPKAAELKESALKWKQEAEEAVADGGSSDRNIQAFVDEVRRRSVGIITSSKSKSIHRVKELVEKTATATANDKVELVES
For B5, the “substrate preference for pHBA over sinapic acid” value in data set [1] (10 mM substrate concentration) worked out at 4.88 fold. Further, the “rate of pHBA glucosylation relative to sinapic acid” value in data set [1] (10 mM substrate) is reported as “at least six times faster”. Moreover, the “Ratio of Activity pHBA/SA” value in data set [1] amounted to 6.35.
